For this data set, the system named is ATP. Briefly: switch fluorescence ratio, 500 uM ATP over buffer (Cy3 cluster intensity, sum of 5 cycles each) (fold (ratio)); higher = stronger signal-on switching upon ATP binding; sequences stand for … in TCGTCGGCAGCGTCAGATGTGTATAAGAGACAGTTTTTTTTTTTTTTTTTTTTTTTTT…TC. The note with it: aptamer strand: ATP DNA aptamer (quencher-CACCTGGGGGAGTATTGCGGAGGAAGG + anchor), 100 nM annealed; ATP concentration: 500 uM. In outline: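 For every switch-domain sequence, the fluorescence ratio is the mean of per-cluster values, each being summed target-cycle Cy3 intensity over summed buffer-cycle Cy3 intensity. Clusters outside 100-1000 RFU were excluded. On a modified Illumina MiSeq flow-cell, the Cy3-labelled switching-strand clusters were annealed to 100 nM quencher-labelled ATP aptamer, imaged in selection buffer and then after 15 min with 500 uM ATP at 22 °C. Five such cycles were run, with NaOH stripping and re-annealing between them.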

± gives the standard deviation of the averaged measurements.
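Note: ATP exposure 15 min at 22 °C before imaging.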

ATTAATCCAT: the switch fluorescence ratio was found to be 0.987 ± 0.019.

Regarding ATTAATGTGA, the switch fluorescence ratio is 1 ± 0.031. The result for ATTAATTGTG reads 1.01 ± 0.018; that for ATTACAAAAA, 1.01 ± 0.014; that for ATTACCCGGA, 1 ± 0.028. The value for ATTACCGGCG was 0.996 ± 0.025; that for ATTACGGAAA was 1.74 ± 0.96; that for ATTACGGAAC was 1.26 ± 0.018. The value for ATTACGGCAC was 2.09 ± 0.14. In the case of ATTACGGTCT, the switch fluorescence ratio is 1.04 ± 0.02.

Take ATTACGGTGG: the switch fluorescence ratio was found to be 1 ± 0.045. The value for ATTACTGCAT was 1.07 ± 0.059; that for ATTACTGGTG was 1.1 ± 0.019.

For ATTACTTTTC, the switch fluorescence ratio was determined as 1.006 ± 0.0057. On to ATTAGAAAAG, for which the switch fluorescence ratio was 0.991 ± 0.03. The result for ATTAGACAGC reads 1.01 ± 0.032; that for ATTAGGAAAA, 1.02 ± 0.025.

For ATTAGGATGT, the switch fluorescence ratio is 0.9948 ± 0.0027. The value for ATTAGGCGTG was 0.987 ± 0.01. The result for ATTAGGGAGC reads 0.989 ± 0.011; that for ATTAGGGCAT, 1.006 ± 0.0075; that for ATTAGGGCCA, 1.007 ± 0.0078.

ATTAGGGGCC: the switch fluorescence ratio was 0.976 ± 0.018. On to ATTAGGGGGA, for which the switch fluorescence ratio was 1.03 ± 0.014. The value for ATTAGGTGTT was 1.03 ± 0.066; that for ATTAGTACTT was 0.987 ± 0.015. Consider ATTAGTAG, for which the switch fluorescence ratio is 1.022 ± 0.0095. The value for ATTAGTGATA was 0.9756 ± 0.0025. On to ATTAGTTGTG, for which the switch fluorescence ratio came to 0.976 ± 0.011.

On to ATTATAACAG, for which the switch fluorescence ratio was determined as 1.038 ± 0.009.

Consider ATTATAACTC, for which the switch fluorescence ratio was determined as 0.957 ± 0.036. Consider ATTATACCTT, for which the switch fluorescence ratio came out at 1.182 ± 0.011.

On to ATTATAGTTG, for which the switch fluorescence ratio turned out to be 1.039 ± 0.0094. The value for ATTATATCGG was 0.9981 ± 0.0031; that for ATTATATGGG was 1.016 ± 0.0029. The value for ATTATCAGCC was 1.022 ± 0.0041; that for ATTATCGGGA was 1.02 ± 0.0017.

As for ATTATCGGTA, the switch fluorescence ratio came out at 0.974 ± 0.058. The result for ATTATCTGGT reads 1.02 ± 0.043; that for ATTATGCCTG, 1.06 ± 0.044; that for ATTATGCTAT, 1.052 ± 0.0094. The value for ATTATGGTTA was 0.9884 ± 0.0097. The value for ATTATGTTCT was 1.01 ± 0.013; that for ATTATTAAAT was 1.08 ± 0.18; that for ATTATTAAGT was 0.987 ± 0.025. In the case of ATTATTATGC, the switch fluorescence ratio is 0.97 ± 0.025. The value for ATTATTTACT was 1.018 ± 0.0017.

Regarding ATTATTTGTC, the switch fluorescence ratio is 1.01 ± 0.044.

As for ATTCAACGGG, the switch fluorescence ratio was 1.04 ± 0.013. The value for ATTCAAGGTT was 0.973 ± 0.024. As to ATTCACCGGA, the switch fluorescence ratio was 1.031 ± 0.0044. The value for ATTCACTCGG was 1.38 ± 0.48. The result for ATTCAGTCAT reads 0.9901 ± 0.0021; that for ATTCATCATT, 1.003 ± 0.0043. The result for ATTCCCGGTT reads 1.03 ± 0.022. For the sequence ATTCCGCCGA, the switch fluorescence ratio is 1.48 ± 0.08. Turning to ATTCCGGCGG, the switch fluorescence ratio is 0.976 ± 0.015. The value for ATTCCTAGGG was 1.048 ± 0.0022; that for ATTCCTCAGC was 2.39 ± 0.49. The result for ATTCCTGGGG reads 1.05 ± 0.012. The result for ATTCCTTGGT reads 1.03 ± 0.022; that for ATTCGGGTGT, 1.151 ± 0.0081; that for ATTCGGTTTT, 0.97 ± 0.013. Turning to ATTCGTAGGG, the switch fluorescence ratio amounted to 1.01 ± 0.012. The result for ATTCGTCGTC reads 0.983 ± 0.077. The value for ATTCGTTTTA was 0.975 ± 0.013. The result for ATTCGTTTTT reads 1 ± 0.021; that for ATTCTCACGT, 1.06 ± 0.021; that for ATTCTCCGGG, 1.18 ± 0.065.

ATTCTGATTG: the switch fluorescence ratio came to 1.02 ± 0.033. As to ATTCTGGGTT, the switch fluorescence ratio is 0.987 ± 0.032. For ATTCTGTAAT, the switch fluorescence ratio is 1.01 ± 0.017.

With ATTCTTCTCA, the switch fluorescence ratio came to 1.02 ± 0.028.

In the case of ATTCTTGGGT, the switch fluorescence ratio worked out at 1 ± 0.075. The result for ATTCTTTGGC reads 1.04 ± 0.097; that for ATTGAAAAAG, 1.01 ± 0.025; that for ATTGAAAAAT, 0.983 ± 0.012. The result for ATTGAAACGA reads 1.08 ± 0.039; that for ATTGAACCGG, 1.04 ± 0.012. The value for ATTGAAGATG was 0.971 ± 0.025; that for ATTGACATGT was 1.03 ± 0.037.

On to ATTGACGGCA, for which the switch fluorescence ratio was found to be 1.02 ± 0.032. The value for ATTGACGTAT was 1.07 ± 0.13; that for ATTGACTCTT was 1.003 ± 0.0074; that for ATTGAGGATG was 1.07 ± 0.17. The result for ATTGAGTCTG reads 1.02 ± 0.047; that for ATTGAGTGGC, 0.928 ± 0.026. The value for ATTGAGTGTG was 0.979 ± 0.022; that for ATTGATTTCT was 1.012 ± 0.006. Regarding ATTGCAGATC, the switch fluorescence ratio amounted to 1.05 ± 0.058. The result for ATTGCATGAG reads 1.004 ± 0.0014; that for ATTGCGAATT, 1.02 ± 0.022. The result for ATTGCGCCCG reads 1.032 ± 0.0088; that for ATTGCGGGTA, 0.992 ± 0.042; that for ATTGCTGTTT, 1.037 ± 0.0019.

Take ATTGGACAAT: the switch fluorescence ratio is 1.02 ± 0.032. The value for ATTGGAGGAT was 0.96195 ± 0.0005.

On to ATTGGAGGCT, for which the switch fluorescence ratio was 0.971 ± 0.075. The value for ATTGGAGGGG was 1.008 ± 0.0041; that for ATTGGATAAT was 0.9967 ± 0.0091. The result for ATTGGCGTAT reads 0.987 ± 0.026; that for ATTGGCTACT, 0.987 ± 0.013. The result for ATTGGCTGGA reads 0.96 ± 0.076; that for ATTGGCTGTT, 0.997 ± 0.052; that for ATTGGGACAG, 0.994 ± 0.031. Regarding ATTGGGATGA, the switch fluorescence ratio amounted to 0.976 ± 0.025. Regarding ATTGGGCAGG, the switch fluorescence ratio was found to be 1.04 ± 0.017. The value for ATTGGGCTGC was 0.977 ± 0.01; that for ATTGGGGCGT was 0.977 ± 0.016. The value for ATTGGGGTTT was 1 ± 0.019.

With ATTGGGTAT, the switch fluorescence ratio was 0.988 ± 0.021. The result for ATTGGGTCGT reads 0.992 ± 0.021.

For ATTGGTGAGG, the switch fluorescence ratio stood at 0.988 ± 0.032.

As to ATTGGTTAGG, the switch fluorescence ratio stood at 1.01 ± 0.028. The result for ATTGGTTTCT reads 1.04 ± 0.074; that for ATTGTAATTG, 0.993 ± 0.012; that for ATTGTAGTGT, 1.01 ± 0.025. The value for ATTGTATGGG was 0.9744 ± 0.0071; that for ATTGTCTCTA was 0.999 ± 0.032. As for ATTGTGATTG, the switch fluorescence ratio turned out to be 0.997 ± 0.038.
